Reference: patent US9066986B2, “Anti-CEACAM6 antibodies and uses thereof” (National Research Council of Canada, priority 2010, dated 2015)

Key:
BxPC3 cells [1] = experiment: Matrigel invasion assay; type: cell-based, human; settings: for invasiveness of treated cells decreased to: 40 μM, 20 hrs, normalized to non-treated control
Protocol: Matrigel invasion assay is designed to evaluate the capability of cells to invade into matrigel, an indication of the capacity to metastasize.
The assay was carried out by using bio-coated Matrigel invasion chambers (BD Biosciences, Bedford, Mass.). […] Only cells that could digest the matrix could migrate through the pores. […] The cells were re-suspended in RPMI medium and seeded on the tops of insert wells at 1×10^5 cells/well density and cultured at 37° C. in a humidified CO2 chamber. After 20 hrs, the non-invasive cells were scrubbed from the top of the insert well using a cotton-swap. The invasive cells on the bottom surface were stained with Calcein AM (Invitrogen) and were photographed with an Olympus BX51 microscope. All experiments were performed in triplicate.

MMP-2 = experiment: Gelatin zymography of conditioned media from treated BxPC3 cells; type: cell-based, human
Protocol: (§1) Gelatin zymography is used to detect the activity of gelatinases, namely, matrix metalloproteinases MMP-2 and MMP-9 (28).
(§2) The medium aliquots were taken from BxPC3 cultures at the time the proliferation assays (Example 9) were performed. For evaluation of dose-dependence effect, antibodies and gemcitabine were used at concentrations of 0.4-25 μM and 0.4-50 nM, respectively. The media were applied to a 10% sodium dodecyl sulfate-polyacrylamide gel electrophoresis gel (SDS-PAGE) that was supplemented with 1.5 mg/ml gelatin. The gel was run at 150 V until the bromophenol blue dye reached the bottom of the gel. SDS was removed from the gel by washing the gel four times with 2.5% Triton X-100 for 30 min at room temperature with gentle shaking using an orbital shaker (28). The gel was then incubated overnight at 37° C. in development buffer comprising 50 mM Tris-HCl, 0.2 M NaCl, 5 mM CaCl2, 5 mM ZnCl2, 0.02% Brij-35, and 0.05% NaN3 at pH 7.4. Gelatinase-digested gelatine-supplemented gels were stained with Coomassie blue. Clean bands produced by MMP-2 and MMP-9 activity were visible against the blue background after de-staining. The relative activities of the gelatinases were determined by using a densitometer (AlphaView, Fluor Chem SP, Alpha Innotech Corporation, San Leandro, Calif., USA).

MMP-9 = experiment: as above; type: cell-based, human; settings: for effect on MMP-9 activity: media from treated BxPC3 cells
Protocol: as §1, §2

HUVECs = experiment: In vitro capillary formation assay with conditioned media of treated BxPC3 cells; type: cell-based, human; settings: for inhibition of tubule formation (endothelial cell angiogenesis): HUVEC in conditioned media from BxPC3 cells treated 24 hrs, 16 h culture
Text: Angiogenesis is another critical step in the progression of pancreatic cancer. Relatively complex and dense micro-vessels are localized in pancreatic cancer tissue. Highly vascular tumors are associated with an increased risk of hepatic metastasis and a poor survival rate (Semenza, 2003). Anti-angiogenesis is a valid strategy when employing pancreatic cancer target therapy. Thus, the in vitro capillary formation assay was used to test the ability of conditioned media of sdAb-treated BxPC3 cells to inhibit HUVECs angiogenesis.
The matrix was then polymerized at 37° C. for 30 min. […] HUVEC cells were then seeded onto the polymerized matrix at 5×10^4 cells per well. The cells were cultured at 37° C. for 16 h then stained with Calcein AM (Invitrogen) for 30 min. Photographs were taken at 100× magnification employing fluorescence microscopy (Olympus BX51). Three fields that were randomly chosen were captured and the lengths of the capillaries in each field were measured.

BxPC3 cells [2] = experiment: In vitro MTT cell proliferation assay; type: cell-based, human; settings: for inhibition of BxPC3 cell proliferation: vs starvation medium control
Protocol: (§3) Cells were left to grow for 72 h in the presence of the sdAb, then assayed for viability. Briefly, 20 μl of MTT reagent (2 mg/ml in PBS) was added to each well. After four hours, the supernatant was removed, adherent cells were lysed, and the crystals were solubilized with 100 μl dimethyl sulfoxide (DMSO, Sigma) per well. The absorbance of the formazan product was measured with a plate reader at a wavelength of 570 nm. After subtracting background absorbance, results were expressed as absorbance.
as §2

CEACAM6 N-domain [3] = molecular target: T1, CEACAM6 N-domain (Homo sapiens, UniProt P40199)
T1 sequence (P40199 35-142 limits assumed): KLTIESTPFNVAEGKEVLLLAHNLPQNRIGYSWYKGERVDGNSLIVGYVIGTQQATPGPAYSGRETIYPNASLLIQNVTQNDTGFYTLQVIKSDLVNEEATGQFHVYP
Protocol: Maxisorb 96-well microtiter plates (Nunc) were coated with 2 μg/ml recombinant CEACAM6 protein (N-domain) overnight at 4° C. in phosphate-buffered saline (PBS). 2% fat-free dry milk solution in PBS was used for 2 h at room temperature to block the residual protein-binding sites in the wells. Serial diluted serum or soluble recombinant sdAbs were added to the wells, which were incubated at 37° C. for 24 hr. Detection of llama IgGs and sdAb was performed with goat anti-llama IgG (Bethyl Lab, Montgomery, Tex.), horseradish peroxidase anti-goat conjugate (Cedarlane, Burlington, ON) and the corresponding substrate KPL for peroxidase. The reaction was stopped by adding 1 M H3PO4 and the absorption at 405 nm was measured.
The sdAb was incubated in mouse serum and the residual binding capacity was measured by ELISA then compared with the same antibody that was not incubated in serum.

CEACAM6 N-domain [4] = molecular target: T1, CEACAM6 N-domain; experiment: Affinity measurement by surface plasmon resonance (Biacore 3000); design: made in house; host or cells: E. coli; settings: SPR, CEACAM6 immobilized, 1:1 Langmuir binding model
Protocol: 209 RUs of CEACAM6 and 1746 RUs of Ovalbumin (as reference protein) were immobilized on research grade sensor chip CM5 (GE HealthCare). Immobilizations were performed with an amine-coupling kit (GE Healthcare) and carried out at 50 μg/ml CEACAM6 in 10 mM Acetate, pH 4 (GE Healthcare) and 50 μg/ml of Ovalbumin in 10 mM Acetate, pH 4.5. 120 μL of the sdAb at concentration of 1 nM to 60 nM were injected over the surfaces at a flow rate of 40 μl/min. Analyses were carried out at room temperature in HBS-EP, 10 mM HEPES pH 7.4, 150 mM NaCl, 3 mM EDTA and 0.005% surfactant P20 (GE Healthcare). Regeneration was performed with running buffer (HBS-EP). Data were analyzed with BIAevaluation software 4.1.
One hundred twenty microliters of CEACAM6 recombinant protein at concentration of 0.1 nM to 200 nM was injected over the surfaces at a flow rate of 40 μl min-1. Analyses were carried out at room temperature in HBS-EP comprising 10 mM HEPES pH 7.4, 150 mM NaCl, 3 mM EDTA and 0.005% surfactant P20 (GE Healthcare). Regeneration was performed with HBS-EP used as running buffer. The data were analyzed by using BIAevaluation software 4.1.

A549 cells [5] = experiment: Flow cytometry with FITC-labelled sdAb; type: cell-based, human; settings: FITC-labelled 2A3, 5 μg/ml, fixed A549 cells, FACS
Protocol: (§4) For flow cytometry, purified sdAbs were labelled with FITC as instructed by the manufacturer (Invitrogen). Different cell lines were grown as a monolayer until they were approximately 80% confluent. After fixing by 10% formaldehyde in PBS for 10 minutes, cells were washed with PBS then incubated at room temperature with different FITC-labelled sdAbs. After one hour of incubation, cells were washed twice with PBS to remove unbound sdAbs and the cells were analyzed by flow cytometry using a FACS Canto flow cytometer (BD Bio-sciences).

BxPC3 cells [6] = experiment: Flow cytometry with FITC-labelled sdAb; type: cell-based, human; settings: FITC-labelled 2A3, 5 μg/ml, fixed BxPC3 cells, FACS
Protocol: as §4

LS174T cells = experiment: Flow cytometry with FITC-labelled sdAb; type: cell-based, human; settings: FITC-labelled 2A3, 5 μg/ml, fixed LS174 cells, FACS
Protocol: as §4

A549 cells [7] = experiment: In vitro MTT cell proliferation assay; type: cell-based, human; settings: 125 μg/ml antibody
Protocol: as §3

LS174 cells = experiment: In vitro MTT cell proliferation assay; type: cell-based, human; settings: 125 μg/ml antibody
Protocol: as §3

BxPC3 tumor [8] = experiment: Small animal PET imaging and ROI analysis
Protocol: Subcutaneous BxPC3 tumor model was established in 5 to 6-week-old female athymic nude mice obtained from Harlan (Indianapolis, Ind.); 5×10^6 cells suspended in 50 μl of phosphate buffered saline (PBS) were injected and the mice underwent small animal PET studies when the tumor volume reached 100-200 mm^3 (3-4 weeks after inoculation). PET scans and image analysis were performed using an Inveon microPET scanner (Siemens Medical Solutions). About 3.7 MBq (100 μCi/5 μg) of ^64Cu-DOTA-Abs were administered via tail vein injection under isoflurane anesthesia. Five-minute static PET images were acquired at different time points post-injection (p.i.; n=4/group). The images were reconstructed using a two-dimensional ordered-subset expectation maximization (2D OSEM) algorithm, and no correction was applied for attenuation or scattering. For each scan, regions of interest (ROIs) were drawn over the tumor and major organs using vendor software (ASI Pro 5.2.4.0) on decay-corrected whole-body coronal images. The radioactivity concentrations (accumulation) within the tumors, muscle, liver, and kidneys were obtained from mean pixel values within the multiple ROI volume and then converted to MBq per milliliter per minute using the calibration factor determined for the Inveon PET system. […]

BxPC3 tumor [9] = experiment: Ex vivo biodistribution (γ-counter); settings: 64Cu-DOTA-labelled, 24 hr p.i., n=4
Protocol: Blood, tumor, major organs, and tissues were collected and wet-weighed. The radioactivity in the wet whole tissue was measured with a γ-counter (Packard). The results were expressed as percentage of injected dose per gram of tissue (% ID/g) for a group of 4 animals. For each mouse, the radioactivity of the tissue samples was calibrated against a known aliquot of the injected radiotracer and normalized to a body mass of 20 g. Values were expressed as mean±SD (n=4/group).

UM-SCC-22B cells = experiment: Cell uptake of 64Cu-labelled tracer; type: cell-based, human; settings: 22B cells compared with BxPC3 cells
Protocol: (§5) Cell uptake, internalization, and efflux of ^64Cu-DOTA-2A3-Fc were performed with BxPC3 and UM-SCC-22B tumor cells (negative control). For cell uptake, the cells were seeded into 24-well plates at a density of 1×10^5 cells per well and incubated with 18.5 kBq (0.5 μCi/5 ng)/well of ^64Cu-labelled tracer at 37° C. for 15, 30, 60, and 120 min. The cells were then washed three times with chilled PBS and lysed with 500 μL 0.1 M NaOH. For efflux studies, about 18.5 kBq (0.5 μCi)/well of ^64Cu-DOTA-2A3-mFc were first incubated with BxPC3 cells in 24-well plates for 2 h at 37° C. The cells were washed three times with chilled PBS and allowed to stand with fresh buffer. At various time points, the medium was removed and the cells washed three times with chilled PBS. The cells were then lysed with 500 μL 0.1 M NaOH. The cell lysate was collected and the remaining radioactivity was measured in a γ counter (Packard, Meriden, Conn.). The cell uptake, and efflux were expressed as the percentage of the added dose (% AD) after decay correction. All experiments were performed with triplicate wells.

BxPC3 cells [10] = experiment: Cell uptake and efflux of 64Cu-labelled tracer; type: cell-based, human
Protocol: as §5

For `Nc1ccn([C@@H]2O[C@H](CO)[C@@H](O)C2(F)F)c(=O)n1` [gemcitabine, reference compound], which “effect on invasion” value (BxPC3 cells [1]) is on record?
The value was “did not affect angiogenesis or invasion”.

And the “increase of MMP-2 activity” value (MMP-2; at high dosages)?
Its value is ~10%.

What about the “effect on MMP-2 activity” value (MMP-2; media from treated BxPC3 cells) of the same molecule?
The value was “does not affect MMP-2 and MMP-9 activity”.

What about the “increase of MMP-9 activity” value (MMP-9; at high dosages) of the same molecule?
The value was ~10%.

And the “effect on MMP-9 activity” value (MMP-9)?
The value was “slightly increased MMP-9 activity”.

What about the “effect on angiogenesis” value (HUVECs; culture medium from treated BxPC3 cells) of the same molecule?
The value was “inhibitory effects on angiogenesis were not seen”.

And the IC50 (BxPC3 cells [2]; Homo sapiens, BXPC-3, 72 h, MTT, n=5)?
The IC50 was 12 nM.

B1: 2A3: anti-CEACAM6 llama single domain antibody (sdAb), SEQ ID NO:4 (protein)
VHH: QVKLEESGGGLVQAGGSLRLSCRTSGRTNSVYTMGWFRQAPGKEREFVAQIMWGAGTNTHYADSVKGRFTISRDSAESTVYLQMNSLKPEDTAVYYCAANRGIPIAGRQYDYWGQGTQVTVSS
modifications: Anti-CEACAM6 sdAb
B1 was tested. Which “BxPC3 invasiveness reduced by” value (BxPC3 cells [1]) did it give?
The value was ~73%.

What about the “invasiveness of treated cells decreased to” value (BxPC3 cells [1]) of the same molecule?
Its value is 27.4±8.4%.

What about the “effect on MMP-2 activity” value (MMP-2; 5 μM dosage) of the same molecule?
The value was “did not influence MMP-2 activity significantly”.

And the “effect on MMP-2 activity” value (MMP-2; media from treated BxPC3 cells)?
The value was “not MMP-2 activity”.

What about the “MMP-9 activity reduced to” value (MMP-9; 5 μM dosage) of the same molecule?
The value was 25%.

What about the “culture medium MMP-9 activity down-regulated by” value (MMP-9; 2A3-treated BxPC3 compared to non-treated cells) of the same molecule?
The value was 33%.

What about the “effect on MMP-9 activity” value (MMP-9) of the same molecule?
Its value is “reduce the activity of MMP-9”.

What about the “residual binding capacity after incubation in mouse serum” value (CEACAM6 N-domain [3]) of the same molecule?
Its value is “retained its full binding capacity”.

And the “inhibition of tubule formation (endothelial cell angiogenesis)” value (HUVECs)?
The value was 21%.

What about the “dissociation rate (kd)” value (CEACAM6 N-domain [4]) of the same molecule?
Its value is 0.0053 s⁻¹.

And the “association rate (ka)” value (CEACAM6 N-domain [4]; sdAb 1 nM to 60 nM, room temperature)?
The value was 1.1e+06 M⁻¹ s⁻¹.

And the cells stained positive (A549 cells [5])?
The cells stained positive was ~20%.

What about the cells stained positive (BxPC3 cells [6]) of the same molecule?
The cells stained positive was “approximately 90%”.

And the cells stained positive (LS174T cells)?
Its cells stained positive is “about 16%”.

What about the “effect on A549 growth” value (A549 cells [7]) of the same molecule?
Its value is “little effect on their growth”.

What about the “effect on LS174 growth” value (LS174 cells) of the same molecule?
Its value is “little effect on their growth”.

And the “inhibition of BxPC3 cell proliferation” value (BxPC3 cells [2]; 50 μg/ml)?
The value was “approximately 27%”.

What about the “effect on BxPC3 proliferation” value (BxPC3 cells [2]; 125 μg/ml antibody, vs irrelevant sdAb BSA12, p<0.0001) of the same molecule?
Its value is “inhibits BxPC3 proliferation in vitro”.

B2: 2A3-Fc: 2A3 sdAb fused to the mouse Fc2b fragment; heavy chain antibody (protein)
chain: QVKLEESGGGLVQAGGSLRLSCRTSGRTNSVYTMGWFRQAPGKEREFVAQIMWGAGTNTHYADSVKGRFTISRDSAESTVYLQMNSLKPEDTAVYYCAANRGIPIAGRQYDYWGQGTQVTVSS
modifications: left off: a dimerising Fc or GST
notes: heavy chain antibody
What does the source list for B2?
invasiveness of treated cells decreased to (BxPC3 cells [1]): 27.4±4.8%; effect on MMP-2 activity (MMP-2; media from treated BxPC3 cells): not MMP-2 activity; effect on MMP-9 activity (MMP-9): reduce the activity of MMP-9; tumor uptake (BxPC3 tumor [8]; 64Cu-DOTA-labelled, PET ROI, 24 hr p.i.): 98.2±6.12 % ID/g; share of the total injected dose distributed to tumor region (BxPC3 tumor [8]; 24 hr after injection, average tumor size 184 mm^3): Roughly 18%; inhibition of tubule formation (endothelial cell angiogenesis) (HUVECs): 49%; BxPC3 tumor uptake, ex vivo (BxPC3 tumor [9]): 95.4±29.3 % ID/g; inhibition of BxPC3 cell proliferation (BxPC3 cells [2]; 360 μg/ml): 55%

B3: ^64Cu-DOTA-2A3-Fc: 2A3-Fc conjugated with DOTA and labelled with 64Cu, PET tracer (conjugate)
chain: QVKLEESGGGLVQAGGSLRLSCRTSGRTNSVYTMGWFRQAPGKEREFVAQIMWGAGTNTHYADSVKGRFTISRDSAESTVYLQMNSLKPEDTAVYYCAANRGIPIAGRQYDYWGQGTQVTVSS
modifications: left off: a dimerising Fc or GST
With B3 as the molecule, how does the “cell uptake” value (UM-SCC-22B cells) read?
The value was “much lower uptake”.

And the total cell uptake (BxPC3 cells [10]; 2 hr incubation, 37° C.)?
Its total cell uptake is 10.13±0.05 % of total added dose.

And the “radioactivity retained on the cells (efflux)” value (BxPC3 cells [10]; after 2 h incubation in medium devoid of radioactivity)?
The value was “more than 65%”.
